Residue numbers refer to the chain shown, from its start.

From patent US20210388087A1 (Chugai, published 2021) come the findings set out here.

The labels stand for the following.
B1: H183/L072 VL V27cY (antibody, name in Kabat numbering, V domains shown)
VH: QVQLVESGGGLVQPGRSLRLSCAASGFTFSNAWMHWVRQAPGKGLEWVAQIKDKGNAYAAYYAPSVKGRFTISRDDSKNSIYLQMNSLKTEDTAVYYCHYVHYASASTVLPAFGVDAWGQGTTVTVSS
VL: DIVMTQSPLSLPVTPGEPASISCQASQELYHMNRNTYLHWYQQKPGQAPRLLIYKVSNRFPGVPDRFSGSGSGTDFTLKISRVEAEDVGVYYCAQGTSVPFTFGQGTKLEIK
notes: Dual-Ig
B2: H183/L072 VL Y32I (antibody, name in Kabat numbering, V domains shown)
VH: B1 VH
VL: B1 VL with Y30V, Y37I
notes: Dual-Ig
B3: H183/L072 VL V51M (antibody, name in Kabat numbering, V domains shown)
VH: B1 VH
VL: B1 VL with Y30V, V56M
notes: Dual-Ig
B4: H183/L072 VL V94R (antibody, name in Kabat numbering, V domains shown)
VH: B1 VH
VL: B1 VL with Y30V, V99R
notes: Dual-Ig
B5: H183/L072 VL V94Q (antibody, name in Kabat numbering, V domains shown)
VH: B1 VH
VL: B1 VL with Y30V, V99Q
notes: Dual-Ig
B6: H183/L072 VL V51L (antibody, name in Kabat numbering, V domains shown)
VH: B1 VH
VL: B1 VL with Y30V, V56L
notes: Dual-Ig
B7: H183/L072 VL Y32H (antibody, name in Kabat numbering, V domains shown)
VH: B1 VH
VL: B1 VL with Y30V, Y37H
notes: Dual-Ig
B8: H183/L072 VL V51G (antibody, name in Kabat numbering, V domains shown)
VH: B1 VH
VL: B1 VL with Y30V, V56G
notes: Dual-Ig
B9: H183/L072 VL V94T (antibody, name in Kabat numbering, V domains shown)
VH: B1 VH
VL: B1 VL with Y30V, V99T
notes: Dual-Ig
B10: H183/L072 VL V51A (antibody, name in Kabat numbering, V domains shown)
VH: B1 VH
VL: B1 VL with Y30V, V56A
notes: Dual-Ig
B11: H183/L072 VL V94D (antibody, name in Kabat numbering, V domains shown)
VH: B1 VH
VL: B1 VL with Y30V, V99D
notes: Dual-Ig
B12: H183/L072 VL V51R (antibody, name in Kabat numbering, V domains shown)
VH: B1 VH
VL: B1 VL with Y30V, V56R
notes: Dual-Ig
B13: H183/L072 VL V51W (antibody, name in Kabat numbering, V domains shown)
VH: B1 VH
VL: B1 VL with Y30V, V56W
notes: Dual-Ig
B14: H183/L072 VL Y32F (antibody, name in Kabat numbering, V domains shown)
VH: B1 VH
VL: B1 VL with Y30V, Y37F
notes: Dual-Ig
B15: H183/L072 VL V94H (antibody, name in Kabat numbering, V domains shown)
VH: B1 VH
VL: B1 VL with Y30V, V99H
notes: Dual-Ig
B16: H183/L072 VL V51Q (antibody, name in Kabat numbering, V domains shown)
VH: B1 VH
VL: B1 VL with Y30V, V56Q
notes: Dual-Ig
B17: H183/L072 VL V94L (antibody, name in Kabat numbering, V domains shown)
VH: B1 VH
VL: B1 VL with Y30V, V99L
notes: Dual-Ig
B18: H183/L072 VL V51E (antibody, name in Kabat numbering, V domains shown)
VH: B1 VH
VL: B1 VL with Y30V, V56E
notes: Dual-Ig
B19: H183/L072 VL V94N (antibody, name in Kabat numbering, V domains shown)
VH: B1 VH
VL: B1 VL with Y30V, V99N
notes: Dual-Ig
B20: H183/L072 VL V94E (antibody, name in Kabat numbering, V domains shown)
VH: B1 VH
VL: B1 VL with Y30V, V99E
notes: Dual-Ig
B21: H183/L072 VL V94K (antibody, name in Kabat numbering, V domains shown)
VH: B1 VH
VL: B1 VL with Y30V, V99K
notes: Dual-Ig
B22: H183/L072 VL Y32G (antibody, name in Kabat numbering, V domains shown)
VH: B1 VH
VL: B1 VL with Y30V, Y37G
notes: Dual-Ig
B23: H183/L072 VL V51F (antibody, name in Kabat numbering, V domains shown)
VH: B1 VH
VL: B1 VL with Y30V, V56F
notes: Dual-Ig
B24: H183/L072 VL V94W (antibody, name in Kabat numbering, V domains shown)
VH: B1 VH
VL: B1 VL with Y30V, V99W
notes: Dual-Ig
B25: H183/L072 VL V94S (antibody, name in Kabat numbering, V domains shown)
VH: B1 VH
VL: B1 VL with Y30V, V99S
notes: Dual-Ig
B26: H183/L072 VL V94M (antibody, name in Kabat numbering, V domains shown)
VH: B1 VH
VL: B1 VL with Y30V, V99M
notes: Dual-Ig
B27: H183/L072 VL V51S (antibody, name in Kabat numbering, V domains shown)
VH: B1 VH
VL: B1 VL with Y30V, V56S
notes: Dual-Ig
B28: H183/L072 VL V94F (antibody, name in Kabat numbering, V domains shown)
VH: B1 VH
VL: B1 VL with Y30V, V99F
notes: Dual-Ig
B29: H183/L072 VL V51H (antibody, name in Kabat numbering, V domains shown)
VH: B1 VH
VL: B1 VL with Y30V, V56H
notes: Dual-Ig
B30: H183/L072 VL V94G (antibody, name in Kabat numbering, V domains shown)
VH: B1 VH
VL: B1 VL with Y30V, V99G
notes: Dual-Ig
B31: H183/L072 VL Y32A (antibody, name in Kabat numbering, V domains shown)
VH: B1 VH
VL: B1 VL with Y30V, Y37A
notes: Dual-Ig
B32: H183/L072 VL Y32L (antibody, name in Kabat numbering, V domains shown)
VH: B1 VH
VL: B1 VL with Y30V, Y37L
notes: Dual-Ig
B33: H183/L072 VL V94I (antibody, name in Kabat numbering, V domains shown)
VH: B1 VH
VL: B1 VL with Y30V, V99I
notes: Dual-Ig
B34: H183/L072 VL V51N (antibody, name in Kabat numbering, V domains shown)
VH: B1 VH
VL: B1 VL with Y30V, V56N
notes: Dual-Ig
B35: H183/L072 VL Y32N (antibody, name in Kabat numbering, V domains shown)
VH: B1 VH
VL: B1 VL with Y30V, Y37N
notes: Dual-Ig
B36: H183/L072 VL V51I (antibody, name in Kabat numbering, V domains shown)
VH: B1 VH
VL: B1 VL with Y30V, V56I
notes: Dual-Ig
B37: H183/L072 VL V51P (antibody, name in Kabat numbering, V domains shown)
VH: B1 VH
VL: B1 VL with Y30V, V56P
notes: Dual-Ig
B38: H183/L072 VL V94A (antibody, name in Kabat numbering, V domains shown)
VH: B1 VH
VL: B1 VL with Y30V, V99A
notes: Dual-Ig
B39: H183/L072 VL V51D (antibody, name in Kabat numbering, V domains shown)
VH: B1 VH
VL: B1 VL with Y30V, V56D
notes: Dual-Ig
B40: H183/L072 VL Y32P (antibody, name in Kabat numbering, V domains shown)
VH: B1 VH
VL: B1 VL with Y30V, Y37P
notes: Dual-Ig
B41: H183/L072 VL Y32M (antibody, name in Kabat numbering, V domains shown)
VH: B1 VH
VL: B1 VL with Y30V, Y37M
notes: Dual-Ig
B42: H183/L072 VL V94P (antibody, name in Kabat numbering, V domains shown)
VH: B1 VH
VL: B1 VL with Y30V, V99P
notes: Dual-Ig
B43: H183/L072 VL V51K (antibody, name in Kabat numbering, V domains shown)
VH: B1 VH
VL: B1 VL with Y30V, V56K
notes: Dual-Ig
B44: H183/L072 VL V51T (antibody, name in Kabat numbering, V domains shown)
VH: B1 VH
VL: B1 VL with Y30V, V56T
notes: Dual-Ig

T1 sequence (chain, as listed by the source limits assumed): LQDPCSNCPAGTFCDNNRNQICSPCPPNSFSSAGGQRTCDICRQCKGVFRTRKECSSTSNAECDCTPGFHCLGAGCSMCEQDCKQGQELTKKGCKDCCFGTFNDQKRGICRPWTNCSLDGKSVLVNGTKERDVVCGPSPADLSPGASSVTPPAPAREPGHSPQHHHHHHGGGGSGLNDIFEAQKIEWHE

This test addresses T1, Human CD137 ECD (human).
T1 construct: entry includes C-terminal His-tag and biotin acceptor peptide; also called human CD137 extracellular domain; 4-1BB
In words: Biacore SPR, vs parent H183/L072. On the technique in general: SPR reads the build-up and loss of mass on a sensor chip optically.
With B1, the “fold change of affinity” value was 0.7 fold. For B2, the “fold change of affinity” value worked out at 0 fold. Under B3 stands 1 fold.

As for B4, the “fold change of affinity” value came out at 0.4 fold. As for B5, the “fold change of affinity” value came to 0.8 fold. Next, B6: 1.7 fold.

Turning to B7, the “fold change of affinity” value was determined as 0.1 fold. Under B8 stands 0.4 fold; under B9, 0.4 fold. With B10, the “fold change of affinity” value was 0.8 fold. Under B11 stands 0 fold; under B12, 1.4 fold; under B13, 0.1 fold. Next, B14: 1.7 fold; B15: 1.8 fold. With B16, the “fold change of affinity” value came out at 0.8 fold. Under B17 stands 0.3 fold; under B18, 0.6 fold. Under B19 stands 0.2 fold; under B20, 0 fold.

In the case of B21, the “fold change of affinity” value turned out to be 0.1 fold. Next, B22: 0.1 fold; B23: 0.2 fold. Regarding B24, the “fold change of affinity” value was found to be 0 fold. Next, B25: 0 fold; B26: 0.7 fold.

Turning to B27, the “fold change of affinity” value was determined as 0.6 fold. Under B28 stands 0 fold. For B29, the “fold change of affinity” value amounted to 0.6 fold. Next, B30: 0 fold; B31: 0.1 fold. Next, B32: 0.2 fold. Next, B33: 0.7 fold; B34: 0.3 fold. As to B35, the “fold change of affinity” value was 0.2 fold.

For B36, the “fold change of affinity” value came out at 0.6 fold. As for B37, the “fold change of affinity” value is 0 fold.

On to B38, for which the “fold change of affinity” value turned out to be 0.1 fold. As to B39, the “fold change of affinity” value worked out at 0 fold. With B40, the “fold change of affinity” value was 0 fold. Under B41 stands 0 fold. Next, B42: 0.1 fold; B43: 1.4 fold. For the molecule B44, the “fold change of affinity” value came out at 0.6 fold.
